The data set in a line: label from the status in PepcDB records.
In the case of “MDPLALALLPGIGPKRLLEVLKAEDPLGFLRERFPEAWRHLPEAEAQAERERGRAEALGVRLLGLWEEGFPEGLRALPQPPTHLYLKGELPPEREAVALVGTRRASPWALAFARRLARELAEAGLWVVSGLARGIDREAHLGALEAGGRTLGVLGSALDRVYPPENRPLAQRMDLLSEFPFGTGPKPEFFPRRNRLIAGLCRAVVVVEAPLDSGALITARHALELGKEVLAVPGRPTDERSLGANRLIQDGAYPVLSAEDVLSYLGMSARPKPLPGLSPEEEALYALLQEKKEALPEALAMALGIPPERVLSLLTLLELKGLARALPGGRYGPG”, the protein production entry is reported as “failed”.

For “SISTHESQKLREYYRLLNLDEGCSVDDVRESFHKLARQYHPDSGSSDADSATFIKIEEAYRNVLSHAIKRMHAGQDKAEDAAEDEEEGKFKYNTPQHRHYLSFEGVGFGTPSQREKQYRQFRADRATEQVMEYQRQKLQREFFANSITVKDVRQSKQQKITQAIERLVEDLIQESMAKGDFDNLSGKGKPLKKFSGCSYIDPMTHNLNRILIDNGYQPEWILMQKEIKDTIEQLREALLMSRKKLGNPLSPTEQKQWAQVCEQFQEKIRKLNKRINDFNLIVPILTRQKVHFDAQKEIIRVQEMYGAFVEANEVTEENQTDVSQGEESKTPRVKAGFLNWLNLWKSIKI”, the protein production result is listed as “failed”.

In the case of “MSLSKVFTIGEILVEIMASKIGQPFDQPGIWNGPYPSGAPAIFIDQVTRLGVPCGIISCVGNDGFGDINIHRLAADGVDIRGISVLPLEATGSAFVTYHNSGDRDFIFNIKNAACGKLSAQHVDENILKDCTHFHIMGSSLFSFHMVDAVKKAVTIVKANGGVISFDPNIRKEMLDIPEMRDALHFVLELTDIYMPSEGEVLLLSPHSTPERAIAGFLEEGVKEVIVKRGNQGASYYSANEQFHVESYPVEEVDPTGAGDCFGGAWIACRQLGFDAHRALQYANACGALAVTRRGPMEGTSRLMEIETFIQRHDMSIREAAQEGHHHHHH”, the protein production result is recorded as “not failed”.

Take “METLLHAKLLLSAEVESLKSGSFDQTYVKKAEHIISGESYQLVQQFVDKFKGKISISGEISTSSVIAALNDFLNVEVFKMGQENEMLFLAIALLQTFIQNNYTGPAARLKAISGLFGKTGIEIGAVNTALSRSLAIMGQPAYEFMDDPLYLVLSLLLLERITGQKSLFDVTPDQEIPLPIISAESTPGLLAVAYWWWARALLTQLSLIPEPSGFQASVASAIYQSADLAYAITKELPESIHEDFKRELCAMYYLENVKCSLAINTEHLCLPSLTRAKKITNFEFVMTGARATRTKYQQKAHAGLIILAKSFTFQNFALRTTSATPETFALESDLLLEKPHFESIADEPLDEQIYSKRQKVDLNEGYEEDKLLPLALRQENIPKLLLDLNPNDQPTLSDYDNIQLLLRLYTIKNTTPAKDPLVEEELTALLSRILYQNGDKNWSIFARSLWERSIIETTKAKTIERGLLQMQSLVEELDLKIKSKLVPSSSEINVASRLSYIHQLPFIPRWQLDATLAEKYMSLGILKSAVEIYERLGMACETALCYAAVGDEKKAEEILLQRINENDSDARAYSILGDIKQDPSLWEKSWEIGKYVNAKNSLAKYYFNPPPKSGAQPNYSATLKHLNDSLRQYPLSFETWYFYGCVGLQCGKMQIAAEAFTRCVSLDPYHALSWSNLSAAYTKMDKLKEAYSCLKRAISCDAQKNWKIWENYMLVAVKLNEWEDVLTACKQLVSIRRDKSGEGSIDLPIIEKLVELLVTSEYPEEPQQLSYFQKSCTEFICNTLPQVITTSARCWRLVARVELWRKRPWAALECHEKAYRAISHNPDLEVEEKVWNDTVDACEDLVAAYESLGEMEGKYGPGSLVCKDWKYKCRSTIKALMSKGKGRWDDSPGWDRLVEARSQI”: the protein production result is on record as “failed”.

For “MPLFSQHTARFSPDVPLEGTSSRELLKRYQPLETLATGGFGSIEICRDTHLRRRVAIKRIPLINGAGMPASDIMDVLREAHTAAMLQHPNIVQVIDFTHDTAYAYLVMEYVDGMSLAEFLHRVDGHSLTFDEAAAIADALGQALTFAHSNGVLHLDIKPANVLIDHSGNVKLTDFGMARLSSAGGFGGSRGGTIGYMPPEQLDIETGTVDERADVFALACVIYEGLCGSAPFMAATPADSLGHIIGGATYPSELIPHFPPGAESALMSALSPMPQDRPNSIEAFCDQLLAGLGSVREGRRSLEQMVGELSDDEQELDDIEPSHYEDDAIEVDPALGWAGTRWSHARDYTMRTISALTCGTFSFLLMQTAGVAALPGLVIAAIAIGAAAGLAPQIGSAISAVGFLVLMANATMQAQGILSMLPVAVIFAAAMSGWWIAWGRTETAASATLTCALALGCLTGNTFLAAGVAAGVASFWLGPASAAAATGMGALFARLATVALSAGGVLGLGNVAAALGDPLLWAAFVLVAATAAASSALLNVHAKRANQGSNLAAIAAIAVTGIGCAAASCLAHHMEIASLAAAVIAKAAVAGILSSIIVGICLYLLGYQRTYTESDLS”, the protein production entry was “failed”.

“MDRNIDQELVSIIIPTHNRYESLIRAVKSCLHQSYKNIEVIIIDDNYSNVNLRNKIIHQFGYTNHRIKLILSNEDLGATNARNIGIKNSRGKYISFLDDDDEYMPDRILKLMACFKKSRMKNLALVCSYGIIIYPNGTREEEKTDFVGNPLFVQMVHNIAGTSFWLCKKEVLELINGFEKIDSHQDGVVLLKLLVQGYQIDIVREFLVNYYAHSKENGITGVTQKTINADEEYYNYCRKYFNLLSFNERILVTKKYYSLNIKRLLLIGDKCKALKVIKKAREEKIFNEFLF”: the protein production entry is listed as “failed”.

As to “MDIIRKISHFAGQTFGIWVIVFAVLGFSFPSLFTWISSYITIFLGIIMFGMGLTLQADDFKELVRKPWQVIIGVIAQYTIMPLVAFGLAFGLHLPAEIAVGVILVGCCPGGTASNVMTFLAKGNTALSVAVTTISTLLAPVVTPLLIMLFAKEWLPVSPGSLFISILQAVLFPIIAGLIVKMFFRKQVAKAVHALPLVSVIGIVAIVSAVVSGNRENLLQSGLLIFSVVILHNGIGYLLGFLCAKLLKMDYPSQKAIAIEVGMQNSGLGAALATAHFSPLSAVPSAIFSVWHNLSGSMLATYWSKKVKKKQAGSKSSNLSL”, the protein production result is on record as “failed”.

As to “MGNGLAKCLIDGDTETFWHAKWQGGSDPLPYDIVIDMKQNIQIAQVELLPRGRGSNNPIKVVEFAASEDNVNWTPIGRFGFTNQDAALEYYVKSIKARYIRLTIPDDGGNSTVAAIRELDVKGTIINLEHHHHHH”, the protein production result is given as “failed”.

Take “MINIVIPMAGAGSRFAQAGYKKPKPFIDVLGRPMICHVLDNLNMPDARFILLTRKEHFENEQETVNWIKSKYNVEFVLIDNLTEGAACTVLHAHKLIDNNTPLLIANSDQIVDMNIAEFINDSENRNLDGSVLCFKDHDTKWSYAKIDGEGLITEIREKVVISEFATVGIYYFAKGGFFVKNAIDMIIRNERVKNEFYVAPVYNFGIQEGLKFGIFNININQMHGIGTPTDLNVYIDLVQRNKLEHHHHHH”: the protein production entry is given as “not failed”.

“METPNSTGGTPPTMRVSVVLCTHTMERYDDCRAAAESVLAQTYDDVELVLVSDGNRDVYKQYQSDFGNRDDVLTHCNDANVGLLESRNNGAEVATGDVVAFIDDDAIADEEWVAALVDAYEQQDALAVGGRMTPAWVAGKPSFLPAEFYWLIGVTHRGFGPNGDPDEPGVVRNTFGSNISFDRDVFLELGGFDDDIGGRQGEKNLQGGETELCARLRTEYDEGVYYTPEALVAHKIFDYRTDPGWLLDRAFWQGYSKRGMEVFVPESTGEESDFLSDLLFRFAPERIWGLVRAPSVAGVLQFVFLFALTAFVGFGYLYGMTVWG”: the protein production result is given as “failed”.

As for “MNADEFVEAFNNAKDLTELELLAELGKSISDDLEGHEKGKVLGTLGNIYYALHRLKEAEEAYLEALNVYLKLSEEDEGFLPYVVGCLYNLGNLYQVSRKFAEAEKAYTDALKVLGDVRNDQRLAILTALGTMYAKLDMKEHAERCLVEAFEMAKVKGDARLLGTLLNNLAVVYQRGGRKREAAMLLKMALDALERVGEDLGIAAVLQNLLPYLDEDELRRVMERLESFGELPIDLKAKIAYFKARRAEEKGEDSAKHYMEAACLGFMAYRNFGFQSINFMHCLDKVIESDSELREDAVVLKKVILKYYYGSQKVEIDFDSRVGRMIKAVLEGDDIYEDGILEDTVRLIAEDLLKAGTKV”, the protein production entry is reported as “failed”.

For the sequence “LEEFKNSSKLVAAAEKERLDKHLGIPCNNCKQFPIEGKCYKCTECIEYHLCQECFDSYCHLSHTFTFREKRNQKWRSLEKRADEV”, the protein production entry is given as “not failed”.

As to “MLKQRVITAMWLLPLMLGMLFYAPQWLWAAFCGLIALIALWEYARMGGLCKIKTNHYLAATLVFGVVAYAGGWMLPNLVWYVVLAFWLAVMPLWLRFKWRLNGGWQVYAVGWLLVMPFWFALVSLRPHPDDALPLLAVMGLVWVADICAYFSGKAFGKHKIAPAISPGKSWEGAIGGAVCVAVYMTAVRSAGWLAFDTGWFDTVLIGLVLTVVSVCGDLLESWLKRAAGIKDSSKLLPGHGGVFDRTDSLIAVISVYAAMMSVLN”, the protein production entry is recorded as “failed”.

As for “MILRSWARGVTLATICMFSLSSGVILAKNNRPTPLPTYQYPDVYNNYLQPVATAIDYHSGMVYLFNYENDKLIIVDPTSLSGWPGNVPLQHTLVFPEGDKIFITSDNTEEHAAYIIILKVNDINWDAGTVSLAVETVVAADNPGTPTEFPFVEPVNNVQAIPNWLVGRGTTQIHGPTILPYSDFVYLTELTSDRIRVINRKTNEFVSGVDPIAIPGYTEQTHGINFNRSGTIGLGTGYFFDNSVIDVYKPNRETGELQTIGQIRLGDEKRHAAFTHFVYWLDERYAVTASMQFDKTSLTPTTTKKIIPPSVWLLDTLEGTATKILDHTNHANGKGIFRSPSDIAVVNGKLYIAEEDSLDYTFANDGYISVFDLTDRYKPRFLKRLKPGRELPTGYAVAHTISPTPDNRYLIVASWVSGYVLKIDTETDTVVKIWGPNDGLIKPHGIYTAGGLR”, the protein production entry was “failed”.

Take “MNRARIIVAGIGPGGASDITPAVLSAIGRSDVVVGYKYYFRFIEPYLRPDTHCVDTGMKKERQRAEEAFGYALSGKTVCVISSGDAGIYGMAPLIYEMKRAKGVEMDIEVLPGISAFQKAASLLGAPIGHDLCLISLSDLMTPWPIIEKRIVAAASADFVTAIYNPKSEGRYWQLYRFVEIFMQYRSADTPVGLVRQAGREEEQVTVTTLGEFDPEVVDMFTVVLVGNSQSYCYEGHFITPRGYYPEEEIEAKGIGQEIMIKSFRTIEKELHRQDWPLDHKWALLHAIHTTADFDMENILYTDAGAVASLYEMIEAGRLRTIVTDVTMVTSGIRKGALERLGVEAKCYLHDPRVAELAARHGITRTQAGIRLAVEEHPDALFAFGNAPTALQELADLIRRGKASPAGIIAAPVGFVHVQESKHAVKPFRSIPKIIVEGRKGGSNLAATLVNAILCYNDAEQLRPGRDV”: the protein production entry is reported as “failed”.

As for “MQQALAFVARHGRLGLMVGLGAGLALPGLAAVMRPWIPQLVALLLFLTAFRIGPVDAAGSLADLTRTARRVLVLQLALPILFLLGLRLLGLPVTPLALVLALVLAAPSVTGSANFTILLAQDPAPALRLLILGTALLPLTAIPVFWLLPAFGDPAEVFGAALRLLGVILLAAGCGFALRHWGARQLSDLNRRAMDGLTVIALAVIVIALMSAVRPAMTERPAELAFWLLAAFAINLGGQTLCYLTLRATGGADPVPTSIVAGNRNFALFFVALPSEVTEPLLIFLGCYQFPMYLTPTLMRRLYDPV”, the protein production entry is given as “failed”.

As to “MRINLQSLGCRLNEAELESWAREFQAAGHRLVSETGDADLIVLNSCAVTAEAVRKSRQMIRRTQRLSPRARLVLSGCYATLHGDEAAALGVDLVVSNADKSRLVEIAARELALEAMPEFSTEPGEAALFALGRQRAFVKVQDGCRYRCTFCIVTVARGEERSRLPAEVIREIRRLQAEGVQEVVLTGVHLGGYGSDLGLPLDALIRSILQETEIPRLRLGSLEPWDLPPGFFDLFENPRFMPHLHLPLQSGSDTVLKRMARRCKSEEFARLADHARRQVPDINITTDIIVGFPGETEREWEESLQFIETIGFGDIHVFTYSVREGTKAAAMGGHVPAEIKKERSRVLHELALGQKRALLGRFVGREMPVLWENRRDGADRGYTPNYLRVAIQTPETGLTNRITPVRLVKVDASGEFLWCGPVTLPPAAPADTRWRR”, the protein production entry was “failed”.

The values are drawn from a protein production outcome set (Wang et al. 2014).
